Measurements reported in the RNAGym collection of RNA variant scans (doi:10.7554/elife.90254).

B1: LINE1-full (parent)
chain: UACGUAGGUGGUUUUCCCCUGAUAGUGCUAAGGGGGCCUGGAAGUUUGGACUGGGCAGAGCUCAACACAGCGUGGCAAAGUGGCUGUGGCUAGACUGCCUCUCUGGAUUCCUCGUCACUCAGCAGGGCAUCUCUGAGAGAAAUGCC

Variants of: B1
Assay: self-cleavage, relative activity (ratio to wild type); higher = more cleavage; in vitro, sequencing; the parent is a self-cleaving ribozyme

Variant | self-cleavage
UACGUAGGUGGUUUUCCCCUGAUAGUGCUAAGGGGGCCUGGAAGUUUGGACUGGGCAGAGCUCAACACAGCGUGGCAAAGUGGCUGUGGCUAGACUGCCUUGCUGGAUUCCUCGUCACUCAGCAGGGCAUCUCUGAGAGAAAUGCC [C101U U102G] | 0.3
UACGUAGGUGGUUUUCCCCUGAUAGUGCUAAGGGGGCCUGGAAGUUUGGACUGGGCAGAGCUCAACACAGCGUGGCAAAGUGGCUGUGGCUAGACUGCCGCUCAGGAUUCCUCGUCACUCAGCAGGGCAUCUCUGAGAGAAAUGCC [U100G U104A] | 1.17
UACGUAGGUGGUUUUCCCCUGAUAGUGCUAAGGGGGCCUGGAAGUUUGGACUGGGCAGAGCUCAACACAGCGUGGCAAAGUGGCUGUGGCUAGACUGCCGCUCUGGAUUCCUCGUCACUCAGCAGGGCACCUCUGAGAGAAAUGCC [U100G U130C] | 2.21
UACGUAGGUGGUUUUCCCCUGAUAGUGCUAAGGGGGCCUGGAAGUUUGGACUGGGCAGAGCUCAACACAGCGUGGCAAAGUGGCUGUGGCUAGACUGCCGCUCUGGAUUCCUCGUCACUCAGCAGGGCAUCUCUGGGAGAAAUGCC [U100G A136G] | 0.59
UACGUAGGUGGUUUUCCCCUGAUAGUGCUAAGGGGGCCUGGAAGUUUGGACUGGGCAGAGCUCAACACAGCGUGGCAAAGUGGCUGUGGCUAGACUGCCGCUCUGGAUUCCUCGUCACUCAGCAGGGCAUCUCUGAAAGAAAUGCC [U100G G137A] | 0.77
UACGUAGGUGGUUUUCCCCUGAUAGUGCUAAGGGGGCCUGGAAGUUUGGACUGGGCAGAGCUCAACACAGCGUGGCAAAGUGGCUGUGGCUAGACUGCCUCACUGGAUUCCUCGUCGCUCAGCAGGGCAUCUCUGAGAGAAAUGCC [U102A A117G] | 1.31
UACGUAGGUGGUUUUCCCCUGAUAGUGCUAAGGGGGCCUGGAAGUUUGGACUGGGCAGAGCUCAACACAGCGUGGCAAAGUGGCUGUGGCUAGACUGCCUCACUGGAUUCCUCGUCUCUCAGCAGGGCAUCUCUGAGAGAAAUGCC [U102A A117U] | 1.37
UACGUAGGUGGUUUUCCCCUGAUAGUGCUAAGGGGGCCUGGAAGUUUGGACUGGGCAGAGCUCAACACAGCGUGGCAAAGUGGCUGUGGCUAGACUGCCUCACUGGAUUCCUCGUCACUCAGCAGGGCAUCUCUGAGAGAAGUGCC [U102A A142G] | 1.9
UACGUAGGUGGUUUUCCCCUGAUAGUGCUAAGGGGGCCUGGAAGUUUGGACUGGGCAGAGCUCAACACAGCGUGGCAAAGUGGCUGUGGCUAGACUGCCUCACUGGAUUCCUCGUCACUCAGCAGGGCGUCUCUGAGAGAAAUGCC [U102A A129G] | 1.72
UACGUAGGUGGUUUUCCCCUGAUAGUGCUAAGGGGGCCUGGAAGUUUGGACUGGGCAGAGCUCAACACAGCGUGGCAAAGUGGCUGUGGCUAGACUGCCUCACUGGAUUCCUCAUCACUCAGCAGGGCAUCUCUGAGAGAAAUGCC [U102A G114A] | 1.57
UACGUAGGUGGUUUUCCCCUGAUAGUGCUAAGGGGGCCUGGAAGUUUGGACUGGGCAGAGCUCAACACAGCGUGGCAAAGUGGCUGUGGCUAGACUGCCCCUCUGGAUUCCUCGUCACUCAGCAGGGCAGCUCUGAGAGAAAUGCC [U100C U130G] | 1.02
UACGUAGGUGGUUUUCCCCUGAUAGUGCUAAGGGGGCCUGGAAGUUUGGACUGGGCAGAGCUCAACACAGCGUGGCAAAGUGGCUGUGGCUAGACUGCCCCUCUGGAUUCCUCGUCACUCAGCAGGGCAACUCUGAGAGAAAUGCC [U100C U130A] | 1.85
UACGUAGGUGGUUUUCCCCUGAUAGUGCUAAGGGGGCCUGGAAGUUUGGACUGGGCAGAGCUCAACACAGCGUGGCAAAGUGGCUGUGGCUAGACUGCCGCUCUGGAUUCCUCGUCACUCAGCAGGGCAUCUCUGAGAGAAGUGCC [U100G A142G] | 1.01
UACGUAGGUGGUUUUCCCCUGAUAGUGCUAAGGGGGCCUGGAAGUUUGGACUGGGCAGAGCUCAACACAGCGUGGCAAAGUGGCUGUGGCUAGACUGCCCCUCUGGAUUCCUCGUCACUCAGCAGGGCAUCUCUGAGAGAAAAGCC [U100C U143A] | 1.15
UACGUAGGUGGUUUUCCCCUGAUAGUGCUAAGGGGGCCUGGAAGUUUGGACUGGGCAGAGCUCAACACAGCGUGGCAAAGUGGCUGUGGCUAGACUGCCCCUCUGGAUUCCUCGUCACUCAGCAGGGCAUCUCUGAGAGAAAGGCC [U100C U143G] | 2.85
UACGUAGGUGGUUUUCCCCUGAUAGUGCUAAGGGGGCCUGGAAGUUUGGACUGGGCAGAGCUCAACACAGCGUGGCAAAGUGGCUGUGGCUAGACUGCCUAUCUGGAUUCCUCGUCACUCAGCAGGGCAUCUCGGAGAGAAAUGCC [C101A U134G] | 1.8
UACGUAGGUGGUUUUCCCCUGAUAGUGCUAAGGGGGCCUGGAAGUUUGGACUGGGCAGAGCUCAACACAGCGUGGCAAAGUGGCUGUGGCUAGACUGCCCCUCUGGAUCCCUCGUCACUCAGCAGGGCAUCUCUGAGAGAAAUGCC [U100C U109C] | 1.37
UACGUAGGUGGUUUUCCCCUGAUAGUGCUAAGGGGGCCUGGAAGUUUGGACUGGGCAGAGCUCAACACAGCGUGGCAAAGUGGCUGUGGCUAGACUGCCCCUCUGGAUACCUCGUCACUCAGCAGGGCAUCUCUGAGAGAAAUGCC [U100C U109A] | 1.77
UACGUAGGUGGUUUUCCCCUGAUAGUGCUAAGGGGGCCUGGAAGUUUGGACUGGGCAGAGCUCAACACAGCGUGGCAAAGUGGCUGUGGCUAGACUGCCCCUCUGGAUUCCUCGUCACACAGCAGGGCAUCUCUGAGAGAAAUGCC [U100C U119A] | 2.09
UACGUAGGUGGUUUUCCCCUGAUAGUGCUAAGGGGGCCUGGAAGUUUGGACUGGGCAGAGCUCAACACAGCGUGGCAAAGUGGCUGUGGCUAGACUGCCUUUCUGGACUCCUCGUCACUCAGCAGGGCAUCUCUGAGAGAAAUGCC [C101U U108C] | 1.37

Variant | self-cleavage
UACGUAGGUGGUUUUCCCCUGAUAGUGCUAAGGGGGCCUGGAAGUUUGGACUGGGCAGAGCUCAACACAGCGUGGCAAAGUGGCUGUGGCUAGACUGCCGCUCUGGAUUCCUCGUCACUCAGCAGGGCAUCUCUGAGGGAAAUGCC [U100G A138G] | 1.27
UACGUAGGUGGUUUUCCCCUGAUAGUGCUAAGGGGGCCUGGAAGUUUGGACUGGGCAGAGCUCAACACAGCGUGGCAAAGUGGCUGUGGCUAGACUGCCCCUCUGGAUUCCUCGUCACUCAGCAGGGCAUCUCCGAGAGAAAUGCC [U100C U134C] | 2.01
UACGUAGGUGGUUUUCCCCUGAUAGUGCUAAGGGGGCCUGGAAGUUUGGACUGGGCAGAGCUCAACACAGCGUGGCAAAGUGGCUGUGGCUAGACUGCCCCUCUGGAUUCCUCGUCACUCAGCAGGGCAUCUCAGAGAGAAAUGCC [U100C U134A] | 1.83
UACGUAGGUGGUUUUCCCCUGAUAGUGCUAAGGGGGCCUGGAAGUUUGGACUGGGCAGAGCUCAACACAGCGUGGCAAAGUGGCUGUGGCUAGACUGCCUCACUGGAUUCCUCGUCACUCUGCAGGGCAUCUCUGAGAGAAAUGCC [U102A A121U] | 1.44
UACGUAGGUGGUUUUCCCCUGAUAGUGCUAAGGGGGCCUGGAAGUUUGGACUGGGCAGAGCUCAACACAGCGUGGCAAAGUGGCUGUGGCUAGACUGCCUCACUGGAUUCCUCGUCACUCAGCGGGGCAUCUCUGAGAGAAAUGCC [U102A A124G] | 1.08
UACGUAGGUGGUUUUCCCCUGAUAGUGCUAAGGGGGCCUGGAAGUUUGGACUGGGCAGAGCUCAACACAGCGUGGCAAAGUGGCUGUGGCUAGACUGCCUAUCUGGAUUCCUCGUCACUCAGCAGGGCAUCUCUGAGGGAAAUGCC [C101A A138G] | 1.36
UACGUAGGUGGUUUUCCCCUGAUAGUGCUAAGGGGGCCUGGAAGUUUGGACUGGGCAGAGCUCAACACAGCGUGGCAAAGUGGCUGUGGCUAGACUGCCUUUCUGGAUUCCUCAUCACUCAGCAGGGCAUCUCUGAGAGAAAUGCC [C101U G114A] | 1.37
UACGUAGGUGGUUUUCCCCUGAUAGUGCUAAGGGGGCCUGGAAGUUUGGACUGGGCAGAGCUCAACACAGCGUGGCAAAGUGGCUGUGGCUAGACUGCCUCACUUGAUUCCUCGUCACUCAGCAGGGCAUCUCUGAGAGAAAUGCC [U102A G105U] | 1.09
UACGUAGGUGGUUUUCCCCUGAUAGUGCUAAGGGGGCCUGGAAGUUUGGACUGGGCAGAGCUCAACACAGCGUGGCAAAGUGGCUGUGGCUAGACUGCCGCUCUGGAUUCCUCGUCACCCAGCAGGGCAUCUCUGAGAGAAAUGCC [U100G U119C] | 2.45
UACGUAGGUGGUUUUCCCCUGAUAGUGCUAAGGGGGCCUGGAAGUUUGGACUGGGCAGAGCUCAACACAGCGUGGCAAAGUGGCUGUGGCUAGACUGCCUUUCUGGAUUCCUCGUCACUCAGCAGGGCAUCUCUGAGAUAAAUGCC [C101U G139U] | 1.64
UACGUAGGUGGUUUUCCCCUGAUAGUGCUAAGGGGGCCUGGAAGUUUGGACUGGGCAGAGCUCAACACAGCGUGGCAAAGUGGCUGUGGCUAGACUGCCGCUCUGGGUUCCUCGUCACUCAGCAGGGCAUCUCUGAGAGAAAUGCC [U100G A107G] | 1.31
UACGUAGGUGGUUUUCCCCUGAUAGUGCUAAGGGGGCCUGGAAGUUUGGACUGGGCAGAGCUCAACACAGCGUGGCAAAGUGGCUGUGGCUAGACUGCCCCUCUGGAUUCCUCGUCACUCAGCAGGGCAUCACUGAGAGAAAUGCC [U100C U132A] | 2.37
UACGUAGGUGGUUUUCCCCUGAUAGUGCUAAGGGGGCCUGGAAGUUUGGACUGGGCAGAGCUCAACACAGCGUGGCAAAGUGGCUGUGGCUAGACUGCCUUUCUGGAUUCCUCGUCACUCAGCAGGGCACCUCUGAGAGAAAUGCC [C101U U130C] | 1.54
UACGUAGGUGGUUUUCCCCUGAUAGUGCUAAGGGGGCCUGGAAGUUUGGACUGGGCAGAGCUCAACACAGCGUGGCAAAGUGGCUGUGGCUAGACUGCCUCAUUGGAUUCCUCGUCACUCAGCAGGGCAUCUCUGAGAGAAAUGCC [U102A C103U] | 1.41
UACGUAGGUGGUUUUCCCCUGAUAGUGCUAAGGGGGCCUGGAAGUUUGGACUGGGCAGAGCUCAACACAGCGUGGCAAAGUGGCUGUGGCUAGACUGCCUUUCUGGAUUCCUCGUCACUCAGCAGGGCAUCACUGAGAGAAAUGCC [C101U U132A] | 2.01
UACGUAGGUGGUUUUCCCCUGAUAGUGCUAAGGGGGCCUGGAAGUUUGGACUGGGCAGAGCUCAACACAGCGUGGCAAAGUGGCUGUGGCUAGACUGCCUUUCUGGAUUCCUCGUCACUCAGCGGGGCAUCUCUGAGAGAAAUGCC [C101U A124G] | 2.06
UACGUAGGUGGUUUUCCCCUGAUAGUGCUAAGGGGGCCUGGAAGUUUGGACUGGGCAGAGCUCAACACAGCGUGGCAAAGUGGCUGUGGCUAGACUGCCUAUCUGGAUUCCUCGACACUCAGCAGGGCAUCUCUGAGAGAAAUGCC [C101A U115A] | 1.36
UACGUAGGUGGUUUUCCCCUGAUAGUGCUAAGGGGGCCUGGAAGUUUGGACUGGGCAGAGCUCAACACAGCGUGGCAAAGUGGCUGUGGCUAGACUGCCUUUCUGGGUUCCUCGUCACUCAGCAGGGCAUCUCUGAGAGAAAUGCC [C101U A107G] | 1.73
UACGUAGGUGGUUUUCCCCUGAUAGUGCUAAGGGGGCCUGGAAGUUUGGACUGGGCAGAGCUCAACACAGCGUGGCAAAGUGGCUGUGGCUAGACUGCCCCUCUGGAUUCCACGUCACUCAGCAGGGCAUCUCUGAGAGAAAUGCC [U100C U112A] | 1.74
